{"source": "paper PMC2173958", "molecules": {"B1": {"name": "Cdc31p (natural protein)", "chain": "MSKNRSSLQSGPLNSELLEEQKQEIYEAFSLFDMNNDGFLDYHELKVAMKALGFELPKREILDLIDEYDSEGRHLMKYDDFYIVMGEKILKRDPLDEIKRAFQLFDDDHTGKISIKNLRRVAKELGETLTDEELRAMIEEFDLDGDGEINENEFIAICTDS"}}, "key": {"[1]": {"biological_target": "GST fusion 4a of Sfi1p (643–677) (S. cerevisiae) (UniProt Q12369)", "sequence (Q12369 whole entry)": "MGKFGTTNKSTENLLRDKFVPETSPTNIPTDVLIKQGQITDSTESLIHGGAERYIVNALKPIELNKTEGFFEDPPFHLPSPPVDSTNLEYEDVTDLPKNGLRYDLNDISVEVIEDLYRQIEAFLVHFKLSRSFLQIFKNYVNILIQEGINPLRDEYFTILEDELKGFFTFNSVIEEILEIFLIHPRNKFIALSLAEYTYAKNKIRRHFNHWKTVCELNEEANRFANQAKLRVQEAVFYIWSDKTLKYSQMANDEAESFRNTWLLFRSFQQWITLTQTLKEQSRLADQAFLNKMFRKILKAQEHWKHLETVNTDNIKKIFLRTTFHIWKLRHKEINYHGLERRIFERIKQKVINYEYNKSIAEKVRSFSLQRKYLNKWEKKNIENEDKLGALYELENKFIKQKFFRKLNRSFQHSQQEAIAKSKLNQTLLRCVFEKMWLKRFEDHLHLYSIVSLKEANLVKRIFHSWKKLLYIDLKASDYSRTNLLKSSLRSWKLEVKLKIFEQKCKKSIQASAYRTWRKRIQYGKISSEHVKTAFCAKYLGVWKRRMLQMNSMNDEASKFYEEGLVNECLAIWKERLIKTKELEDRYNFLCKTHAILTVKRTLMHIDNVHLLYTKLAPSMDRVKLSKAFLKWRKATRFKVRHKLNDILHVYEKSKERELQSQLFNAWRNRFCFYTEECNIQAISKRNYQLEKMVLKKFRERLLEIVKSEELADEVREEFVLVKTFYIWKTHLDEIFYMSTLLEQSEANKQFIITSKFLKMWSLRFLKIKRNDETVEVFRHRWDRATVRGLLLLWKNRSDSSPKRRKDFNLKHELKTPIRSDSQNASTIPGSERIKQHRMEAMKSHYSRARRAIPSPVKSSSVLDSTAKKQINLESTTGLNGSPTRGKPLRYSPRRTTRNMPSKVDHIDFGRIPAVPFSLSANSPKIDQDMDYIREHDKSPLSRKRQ", "experiment": "pull-down"}, "[2]": {"biological_target": "GST fusion 2c of Sfi1p (279–386) (S. cerevisiae) (UniProt Q12369)", "experiment": "pull-down"}, "[3]": {"biological_target": "GST fusion 4b of Sfi1p (676–710) (S. cerevisiae) (UniProt Q12369)", "experiment": "pull-down"}, "[4]": {"biological_target": "GST fusion 3a of Sfi1p (451–474) (S. cerevisiae) (UniProt Q12369)", "experiment": "pull-down"}, "[5]": {"biological_target": "GST fusion 2b of Sfi1p (246–281) (S. cerevisiae) (UniProt Q12369)", "experiment": "pull-down"}, "[6]": {"biological_target": "Sfi1p-prA (S. cerevisiae) (UniProt Q12369)", "experiment": "affinity purification with mass spectrometry"}}}
{"molecule": "recombinant Cdc31p (from UniProt P06704 2-161) (natural protein)", "values": [{"measurement": "stoichiometry N", "setting": "[1]", "value": "< 1.1"}, {"measurement": "molar ratio of Cdc31p to fusion (gel scan, not at saturation)", "setting": "[2]", "value": 1.1}, {"measurement": "stoichiometry N", "setting": "[3]", "value": "< 1.1"}, {"measurement": "stoichiometry N", "setting": "[4]", "value": "< 1.1"}, {"measurement": "stoichiometry N", "setting": "[5]", "value": "< 1.1"}]}
{"molecule": "B1", "values": [{"measurement": "molar ratio of Cdc31p to Sfi1p-prA (inspection of Coomassie-stained bands)", "setting": "[6]", "value": "> 1"}]}
